A short description of the data set: yeast display, Sf9 membrane polyspecificity reagent, FACS + sequencing; frameworks hold sequencing errors. An outline of the steps:
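Sorting gates, low and high (top ~1%), were placed on anti-HA fluorescence to track expression and on streptavidin fluorescence to track reagent binding. A clone's polyreactivity label is taken from the gate it came out of. The reagent was 10% biotinylated, detergent-solubilized Sf9 membrane, applied for 1 hour at 4 °C to galactose-induced yeast display cells.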
Take “QVQLVESGGGLVQAGGSLRLSCAASGRTFQHYVMGWYRQAPGKERELVDSITNDDSTNYADSVKGRFTISRDNAKITVYLQMNRLKPEDTAVYYCNFDDWGTPVEPGDYDYWGQGTQVTVSS”: the “polyreactivity (PSR sort gate)” value is “low polyreactivity”.
Then “QVQLVESGGGLVQAGGSLRLSCAASGSTFYDYAMGWYRQAPGKERELVAGIRNGGSTNYADSVKGRFTISRDNAKNTVYLQMNSLIPEDTAVYYCAAPRWDGFYSYYRVVWGIFDYWGQGTQVTVSS”, with “low polyreactivity”.
Then “QVQLVESGGGLVQAGGSLRLSCAASGRTFPGNAMGWYRQAPGKEREFFAAITRSGGSTYADSVKGRFTISRDNAKNTVYLQMNSLKPEDTAVSYCAATFKWYSHTKPRFDYWGQGTKVTVSS”, with “low polyreactivity”; and “QVQLVESGGGLVQAGGSLRLSCAASGFIFRYNTMGWYRQPPGKERELVAAISVSGARTYYADSVKGRFTLSRDNAKNTVYLQMNSLKPEDTAVYYCNRRYPLYSRYNNDYWGQGTQVTVSS”, with “high polyreactivity”.
Then “QVQLVESGGGFVQAGGSLRLSCAASGSIFGSYAMGWYRQAAGKERELVPDISSGGSTNYADSVKGRFTISRDNAKYTVYLQMNSLKPEDTAVYYCNADDPAGYLYWWGSWLESDYWGQGTQVTVSS”, with “low polyreactivity”; and “QVQLVESGGGLVQAGGSLRLSCAASGSTFYLNAMGWYRKAHGKERELVAPINGSGGSTYADSVKGRFTISRDNAKNTVYLQLHSLKPEDTAVYYCAADGTGYPGDSYPGMDYDYWGQVTQVTVSS”, with “low polyreactivity”; and “QVQLVESGGGLVQAGGSLRLSCAASGFIFGLNAMGWYRQAPGKERELVAVIAFSGGSTYYADSVKGRFTISRDHAKNTVYLQMNSLKPEDTAVYYCNAVTRYPHPREYDYWGQGTQVTVSS”, with “high polyreactivity”.
Consider “QVQLVESGGGLVKAGCSLRLSCAASGFTFGRYAMGWYRQAPGKERELVAAISRTGGRTYYADSVKGRFTISRDNAKNTVYLQMNSLKPEDTAVYYCAADKGGTYFNGDSWGQGTQVTVSS”, for which the “polyreactivity (PSR sort gate)” value was “high polyreactivity”.
Then “QVQLVESGGGLVQAGGSLRLICAASGGISLYYVKGWYRQAPGKERELVADISGDDSTNYADSVKGRFTISRDNAKNTVYLQMNSLKPEDTAVYYSAAVPGLFYLPYDYWGQGTQVTVSS”, with “low polyreactivity”; and “QVQLVESGGGLVQAGGSLRLSCAASVSTFRWYAMGWYRQAPGKERELVAAISWSGSTTYYADSVKGRFTISRDNAKNTVYLQMNSLKPEDTAVYYCAAEVVFFGWNYDYWGQGTQVTVSS”, with “high polyreactivity”.
Then “QVQVVESGGGLVQAGGSLRLSCAASGSIFDRNAMGWYRKAPGKERELVAGISRSGGSTNYADSVKGRFTISRDNAKNPVYLQMNSLNPEDTAVYYCAASRVVWVGRPWYQVRGDYWGQGTQVTVSS”, with “high polyreactivity”.
The value for “QVQLVESGGGLVQAGGSLRLSCAATGRTFRPYAMGWYTQAPGKEREMVDAIDSSGTSTYYADSVKGRFTISRDNAKKTVYLQMNSQKPEDTAVYYCAKAWPDHWYSRYDYWGQGTQVTVSS” was “low polyreactivity”; that for “QVQLVESAGGLVQAGGSLRLSCAASGSILPSNAMGWYRQATGKERELVAGLSERGSSTYYADSVKGRFTISRDNAKNTVYLQMNSLKPEDTAVYYCAADDVGRYWSSTHNWARGEYWGQGTHVTVSS” was “low polyreactivity”.
With “QVQLVESGGGLVQAGGSLRLSCAASGFIFWDNAMGWYRQAPGKERELVAAISRNGGRTYYADSVKGRFTISRDNAKNTVYLQMNSLKPEDTAVYYCAAYTARSYGMDYWGQGTQVTVSS”, the “polyreactivity (PSR sort gate)” value is “high polyreactivity”.
The value for “QVQLVESGGGLVQAGGSLRLSCAASGSTFYDYVMGWYRQAPGKERELFAAISRTGASTYYADSVKGRFTISRDNAKNTVYLQMNSLKPVDTAVYYCAADSDTVRYYYWGQGTQVTVSS” was “high polyreactivity”; that for “QVQLVESGGGLVQAGGSLRLSCAASGLIFPSYAMGWYRQAPGKERELVATINRGSRTNYADSVKGRFTISRDNAKNTVYLQMNSLKPEDTAVYYCAAHYTTFIPSPDGDYLGQGTQVTVSS” was “low polyreactivity”.
Then “QVQLVESAGGLVQAGGSLRLSCAASARTFGAYAMGWYRQAPGNERELVATITVSGGSTYYADSVKGRFTISRENAKNTVYLPMNSLKPEDTAVYYCAAAYDWWQFYSWTIAYDYWGQGTQVTVSS”, with “low polyreactivity”; and “QVQLVESGGGLVQAGGSLRLSCAASGFTFPFYTMGWYRQAPGKERELVAAITFSGDSTYYADSVKGRFTISRDNAKNTVYLQMNSLKPEDTAVYYCAVASYWGPEYDYWGQGTQVTVSS”, with “low polyreactivity”; and “QVQLVESGGGLVQAGGRLSLSCAASGSIFNQYAMGWHRQAPGKERELVAAISSDGGRTYYADSVKGRFTISRDNAKITVYLQMNSLKPEDTAVYYCNADFPAYGLECDVYWGQGTQVTVSS”, with “low polyreactivity”.
The value for “QVQLVESGGGLVQAGGSLRLSCAASGSTFEDYAMGGYRQAPGKERELVAAISHIGGSTYYADSVKGRFTISRDNAKNTVYLQMNSLKPEDTAVYYCAKGGFSSKFDFWGQGTQVTVSS” was “low polyreactivity”.
As for “QVQLVESGGGLVQAGGSLRLSCAASGRIFYPNAMGWYRQAPGKERELVAGISRSGGSTYYADSVKGRFTISRDNAKNTVYLQMNSLKPEVTAVFYCAARYYASDRHFRGDYWGQGTQVTVSS”, the “polyreactivity (PSR sort gate)” value was “low polyreactivity”.
Then “QVQLVESGGCLVQAGGSLRLSCADSGIIYYYYAMGWYRQAPGKERELVAAISTSGGRTYYADSVKGRFTISRDNAKNTVYLQMNSLKPEDTAVYYCAADYLKGEEDYWGQGTQVSVSS”, with “low polyreactivity”.
Then “QDQLVESGGGLVQAGGSLRLSCAASGSIFWLYTMGWYRQAPGKERELVAAITGSGSSTYYADSVKGRFTISRDNAKNTVYLQMNSLKPEDTAVYYCAAYWSSARRRYDYWGQGTQVTVSS”, with “high polyreactivity”; and “QVQLLESGGGLVQAGGSLRLSCAASGSSFSHYTMGWYRQAPGKERELVAAINYGGASTYYADSVKGRFTISRDNAKNTVYLQMNSLKPEYTAVYYCAAANRPSEQDNYWGQGTQVTVSS”, with “low polyreactivity”.
For “QVQLVESGGGLVQAGGSLRLSCAASGNIFNTYAMGWYRQAPGKERELVAVISSRCGRTYYADSVKGRFTISRENAKNTVYLQMNSLKPEDTAVYYCAAGKHVTFSYEYRMDYWGVGTQVTVSS”, the “polyreactivity (PSR sort gate)” value is reported as “low polyreactivity”.
With “QVHLVESGGGLVQAGGSLRLSCAASGSIFFGYTMGWYRQAPGKERELVAAITRRGGSTYYADSVKGRFTISRDNAKNTVYLQMNSLKPVDTAVYYCAAEVRRYVIVPYYYWGQGTQVTVSS”, the “polyreactivity (PSR sort gate)” value is on record as “high polyreactivity”.
Then “QVQLVESGGGLVQAGGSLRLSCAASGSIFVHYAMGGYRQAPGKERELVAAISQRGGSTSYADSVKGRFTISRDNAKNTVYLQMNSLKPEDTAVYYCAAENWIGDYYWGQGTQVTVSS”, with “low polyreactivity”.
Then “QVQLVESGGRLVQAGGSLRLSCAASGYIFSRNAMGSYRQAPGKERELVATISRGGSTYYGDSVKGRFTISRDNDKNTVYLQMNSLKPEDTAVYFCAATVVYWRSKSSVRRYDYWGQGTQVTVSS”, with “high polyreactivity”.
The value for “QVQLVESGGGLVQAGGSLRLSCAASGSIFVIYAMGWYRQAPGKERELVAAITSGGNTTYADSVKGRFTISRDNAKNTVYLQMNSLKPEDTAVYYCAAYSYYTGDQYSYDYWGQGTQVTVSS” was “low polyreactivity”; that for “QVQLVESGGGLVQAGGSLRLSCAASGRIFRRYAMGWYRQAPGTETELVAAISSGASTYYADSVKGRFTISRDNAKNTVYLQMNSLKPEDTAVYYCAVDRPYYYGYRMDYWGQGTQVTVSS” was “low polyreactivity”.
Consider “QVQLVESAGGLVQAAGSLRLSCDASGFIFGTNAMGWYRQAPGKERELVAAINGRGGGTYYADSVKGRFTISRDNAKNTVYLQMNSLKPEDTAVYYCAASRFDYWGQGTQVTVSS”, for which the “polyreactivity (PSR sort gate)” value is reported as “low polyreactivity”.
For “QVQLVESGGGLVQAGGSLRLSCAASGSIFTFYTMGWYRQAPGKERELVATIRWSVGSTYYADSVKGRFTISRDNAKNTVYLQMNSLKPEDTAVYYCAADSQWSYPDYPGEYAYDYWGQGTQVSVSS”, the “polyreactivity (PSR sort gate)” value was “low polyreactivity”.
Then “QVQLVESGGRLVQAGGSLRLSCAASGRIFTGYAMGWYRQAPGKERELVAAISSRGGSTYYADYVKVRFTISRDNAKNTVYLQMNSLKPEDTAVYYCNAYQWRHRYTMYYWGQGTQVTVSS”, with “high polyreactivity”; and “QVQLVESGGGLVQAGGSLRLSCAASGRIFQYYAMGWYRQAPGKERELVAAIDQSGDTTYYADSVKGRFTISRDNAKNTVYLQMNSLKPEDTAVYYCAAGYDWAYHWVPQWMYYWGQGTQVTVSS”, with “low polyreactivity”; and “QVQLVESGGGLVQAGGSLRLSCAASGSTLRSYAMGWYRQAPGKERELVAAIDWDGGRTYYADSVKGRFTISRDNAKNTVYLQMNSLKPEDTAVYYCNTSAGWSNGKDEGDFYSGFDYWGQGTQVTVSS”, with “low polyreactivity”.
The value for “QVQLVESGGGLVQAGGSLRLSCAASGRIIYGYAMGWYRQAPGKERELVAAISASGGRTYYADSVKGRFTISRDHAKNTVYLQMNSLKPEDTAVYYCAADDVGPPDFYYWGQGTQVTVSS” was “high polyreactivity”; that for “QVQLVESGGGLVQAGGSLRLSCAASGRTLFPNVMGWYRQAPGKERELVAAITTIGGSTYYADSVKGRFTISRDNGKNTVFLQMNSLKPEDTEVYYCNARYRGRGLKFAYWGQGTQVTVSS” was “high polyreactivity”; that for “QVQLVESGGGLVQAGGSLRLSCAASGRIFWYNAMGWYRQAPGKERELVAVISTRGGRTYYADSVKGRFTISRDNAKNTVYLQMNSLKPEDTAVYYCAAEFLNKAVGGVTSIYDSWGQGTQVTVSS” was “low polyreactivity”.
As for “QVQLVESGGGLVQAGGSLRLSCAASGRTFSYYTMGWYRQAPGKERELVARISNRGTNTYYADSVKGRFTISRDNAKNTVYLQMNSLKPEDTAVYYCNAAFSVRHLYRYDYWGQGTQVTVSL”, the “polyreactivity (PSR sort gate)” value is listed as “low polyreactivity”.
Take “QVQHVESGAGLVQAGGSLRLSCAASGSIFEINAMGWYRQAPGKERELVAAITGSGGSTHYADSVKVRFTISRDNAKNTVYLQMNSLKPEDTAVYYCAAVPRYQYGYWGQGNQVTVSS”: the “polyreactivity (PSR sort gate)” value was “low polyreactivity”.

Source of the values: the nanobody polyreactivity screen of Harvey et al. (2022).
